B1: ADC-20 (antibody, human IgG1, kappa, V domains shown)
VH: QVQLVQSGGGLVQPGRSLRLSCAASGFTFDDYAMHWVRQAPGKGLEWVSGISWNSGSIGYADSVKGRFTISRDNAKNSLYLQMNSLRAEDTALYYCAKEGLPGLDYWGQGTLVTVSS
VL: DIQMTQSPSSLSASIGDRATITCRASQHVGTYLNWYQQKPGKTPKLLISGAANLQSGVPSRFSGSGSGTDFTLTISSLQPEDFATYYCQQSYNTPPFSFGQGTKVEIKR
modifications: Asn at position 297 (Eu numbering) carries the remodeled N297 glycan chain from OLS-4, conjugated to the PBD drug linker LD-11; average drug loading y=1.98
B2: ADC-22 (antibody, human IgG1, kappa, V domains shown)
VH: EVQLVQSGAEVKKPGASVKVSCKASGYTFTSYWMHWVRQAPGQRLEWMGMIHPNSGSTNYNEKFKGRVTITRDTSASTAYMELSSLRSEDTAVYYCARLKTGNSFDYWGQGTTVTVSS
VL: DIVLTQSPDSLAVSLGERATINCKSSQSLLNSGNQKNYLTWYQQKPGQPPKLLIYWASTRESGVPDRFSGSGSGTDFTLTISSLQAEDVAVYYCQNAYTYPFTFGQGTKLEIKR
modifications: Asn at position 297 (Eu numbering) carries the remodeled N297 glycan chain from OLS-4, conjugated to the PBD drug linker LD-11; average drug loading y=1.96

Assays:
HER3 = HER3 (UniProt P21860 20-1342, limits assumed); assay: cell-based or functional assay
human Claudin18.2 = human Claudin18.2 (human); assay: cell-based or functional assay

Binder | EC50 (nM), killing effect (CTG) on FaDu++ (HER3) [nM] | EC50 (nM), killing effect (CTG) on MCF7++++ (HER3) [nM] | EC50 (nM), killing effect (CTG) on SW620+++ (HER3) [nM] | EC50 (nM), in vitro killing (CTG cell viability) of cells highly expressing NUGC4-claudin18.2 (human Claudin18.2) [nM] | EC50 (nM), in vitro killing (CTG cell viability) of cells lowly expressing NUGC4-claudin18.2 (human Claudin18.2) [nM] | EC50 (nM), in vitro killing (CTG cell viability) of cells moderately expressing NUGC4-claudin18.2 (human Claudin18.2) [nM]
B1 | 39.9 | 114 | 29.3 |  |  | 
B2 |  |  |  | 2.1 | 11.7 | 9.8

Source: patent US20250000989A1 (JIANGSU HENGRUI PHARMACEUTICALS, published 2025)
